Data from patent US20120207760A1.
Residue numbers refer to the chain shown, from its start.

B1: 3248_P18 (antibody, V domains shown)
VH: QVQLQESGPGLVKPSETLSLTCTVSGGSISAYHWSWIRQPPGKGLEWIGHIFDSGSTYYNPSLKSRVTISLDASKNQLSLRLTSVTASDTAIYYCARPLGSRYYYGMDVWGQGTTVTVSS
VL: DIQMTQSPSSLSASVGDRVTITCRASQSISRYLNWYQQKPGKAPKLLIYGASTLQNGAPSRFSGSGSGTDFTLTISSLQPEDSATYLCQQSYSVPAFGGGTKVEVK
B2: 3241_G23 (antibody, V domains shown)
VH: QVQLQQSGPGLVKPSQTLSLTCTVSGGPVSGGGYSWNWIRQRPGQGLEWVGFMFHSGSPRYNPTLKSRITISVDTSKNLVSLKLSSVTAADTAVYFCARVGQMDKYYAMDVWGQGTTVTVSS
VL: DIQMTQSPSSLSSSVGDRVTITCRASQSIGAYVNWYQQKAGKAPQVLIFGASNLQSGVPSRFSGSGSGTDFTLTISSLQPEDFATYFCQQTYSTPITFGQGTRLEIK
B3: 3136_G05 (antibody, V domains shown)
VH: QVQLQESGPGLVKPSETLSLTCSVSGGSISSDFWSWIRQPPGKGLEWIGYVYNRGSTKYSPSLKSRVTISADMSKNQFSLNMSSVTAADTAVYYCAKNGRSSTSWGIDVWGKGTTVTVSS
VL: DIQMTQSPSSLSASVGDRLTITCRASQSISTYLHWYQQKPGKAPKLLIYAASSLQSGVPSRFSGSRSGTDFTLTISSLQPDDFATYYCQQSYSPPLTFGPGTKVDMK
B4: 3252_C13 (antibody, V domains shown)
VH: QVQLQESGPGLVKPSETLSLTCTVSGASISSDYWSWIRLPPGKGLEWIGYIYNRGSTKYTPSLKSRVTISLDTAENQFSLRLRSVTAADTAIYYCARHVGGHTYGIDYWGQGTLVTVSS
VL: DIQMTQSPSSLSASVGDRVTITCRASQSISNYLNWYQHKPGEAPKLLNYAASSLQSGVPSRFSASGSGTDFTLTISSLQPEDFATYYCQQSYNTPITFGQGTRLEIK
B5: 3420_I23 (antibody, V domains shown)
VH: QVQLQESGPGLVKPSETLSVTCKVSGDSISSYSWSWIRQPPGKGLEWVGYLYYSGSTKYNPSLKSRTTISVDTSTNQLSLKLSFVTAADTAVYFCARTGSESTTGYGMDVWGQGTTVTVSS
VL: B4 VL with N31T, H38Q, E42K, N48I, Q55H, A64G, T72A, N93S, T94P
B6: 3255_J06 (antibody, V domains shown)
VH: B4 VH with I92V
VL: B4 VL with T74S, S77G, Q100P
B7: 3362_B11 (antibody, V domains shown)
VH: QVQLQASGPGLVKPSETLSLTCTVSGDSITSGAYYWTWIRQHPGKGLEWIGYIYYSGNTYYNPSLKSRVTISLDTSKNQFSLKVNSVTAADTAVYYCARAASTSVLGYGMDVWGQGTTVTVSS
VL: B4 VL with N31R, H38Q, K39E, E42K, N48V, A64G, N93S, I96L
B8: 3139_P23 (antibody, V domains shown)
VH: QVQLQESGPRLVKPSESLSLTCTVSGGSISNSFWGWIRQPPGEGLEWIGYVYNSGNTKYNPSLKSRVTISRDTSKSQLYMKLRSVTAADTAVYYCARHDDASHGYSISWGHGTLVTVSS
VL: DIQMTQSPSSLSASVGDRVTITCRASQTISTYLNWYQQKSGKAPKLLIYAASGLQSGVPSRFSGSGSGTDFTLTISSLQPEDFATYFCQQSYNTPLTFGQGTKVEIK
B9: 3259_J21 (antibody, V domains shown)
VH: QVQLQESGPRVVRPSETLSLTCTVSGGSISSYNWIWIRQPPGKGLEWIGHIYDYGRTFYNSSLQSRPTISVDASKNQLSLRLTSVTASDTAVYYCARPLGILHYYAMDLWGQGTTVTVSS
VL: DIQMTQSPLSVSVSVGDRVTIACRASQSIDKFLNWYQQKPGKAPKLLIYGASNLHSGAPSRFSASGSGTDFTLTITNIQTEDFATYLCQQSFSVPAFGGGTKVEIK
B10: 3245_O19 (antibody, V domains shown)
VH: EVQLVESGGGLVQPGGSLRLSCTASGLSVSSTYMNWVRQAPGKGLEWVSVFYSETRTYYADSVKGRFTVSRHNSNNTLYLQMNSLRVEDTAVYYCARVQRLSYGMDVWGQGTTVTVSS
VL: DIQMTQSPSSLSASVGDRVTITCRASQSISTYLNWYQKRPGKAPKLLVYGASTLQSGVPSRFSGSGSGTDFTLTIASLQPEDSATYYCQQTYSIPLFGQGTRLEIK
B11: 3244_H04 (antibody, V domains shown)
VH: B10 VH with V87A
VL: B10 VL with T53S, T85V
B12: 3260_D19 (antibody, V domains shown)
VH: DMQLVESGGGLVPPGGSLRLSCAASGFSVSDNYINWVRQAPGKGLDWVSVFYSADRTSYADSVKGRFTVSSHDSKNTVYLQMNSLRAEDTAVYYCARVQKSYYGMDVWGQGTTVTVSS
VL: GIQMTQSPSSLSASVGDRVTITCRASQSISRYLNWYLQKPGKAPKLLISGASSLQSGVPSRFSGTGSGTEFTLTISSLQPEDFATYYCQQTFSIPLFGQGTKVEIK
B13: 3242_P05 (antibody, V domains shown)
VH: B12 VH
VL: B12 VL
B14: 3243_J07 (antibody, V domains shown)
VH: QVQLQESGPGLLKPSDTLALTCTVSGGSITSDYWSWIRQPPGRGLDWIGFFYNGGSTKYNPSLKSRVTISADTSKNQLSLKLTSVTAADTGVYYCARHDVKFSGSYYVASWGQGTRVTVSS
VL: DIQMTQSPSSLSASVGDRVTISCRASQSISTYLNWYQQQPGKAPKVLISGATNLQSGVPSRFSGSGSGTDFTLTISSLQPEDFATYYCQQSYNTPLIFGQGTKLEIK
B15: 3244_I10 (antibody, V domains shown)
VH: B14 VH with V100A
VL: B14 VL with S49F
B16: 3253_P10 (antibody, V domains shown)
VH: B14 VH with V100A
VL: B14 VL with N53D
B17: TCN-544 (5082_A19) (antibody, V domains shown)
VH: QVQLQESGPGLVKPSETLSLTCTVSRGSIGHYFWSWIRQPPGKGLEWIGYISYSGSTKYNPSLRSRVTISVDTSKNQFSLNLNSVTATDTALYYCAREDYDILTGAGPGMEVWGQGTTVTVSS
VL: QSMLTQPPSASGTPGQRVTISCSGSSSNIGSNTVNWFKHLPGTAPKLLIYRNDLRPSGVPDRFSGSKSGTSASLAISGLQSEDEADYYCATWDDSLNGFYVFGTGTKVTVL
B18: TCN-543 (5081_G23) (antibody, V domains shown)
VH: QVHLVQSGAEVRKPGDSVKVSCKTSGYTFSTYPVAWVRQVPGQGLEWMGWISTYNGNTNFAQNFQGRVTLTTDTTTNTAYMEVRSLKFDDTAVYYCARVEGSYRDFWNNQNRFDPWGQGTLVTVSS
VL: SYVLTQPPSVSVAPGQTARISCGGSNIGGKSVHWYQQKPGQAPVLVVYDDSGRPSGIPERFSGSNSGDTATLTISRVEAGDEADYFCQVWDNFGGVFGTGTKVTVL
B19: TCN-537 (3194_D21) (antibody, V domains shown)
VH: QVQLQQWGSGLLKPSETLSLTCAVYGGSFRDDYWTWIRQPPGKGLEWIGEINHSGRTNYNPSLKSRVTISVDTSLKQFSLKVISVTAADTAVYYCARGTSHVSRYFDWLPPTNWFDPWGQGTQVTVSS
VL: DIVLTQSPGTLSLSPGERATLSCRASQSVSSSYLAWYQQKPGQAPRLVMYGAATRATGIPDRFSGSGSGPDFTLTISRLEPEDFAMYYCQQYGNSPITFGQGTRLEIK
B20: TCN-549 (5092_P04) (antibody, V domains shown)
VH: QVQLVQSGAEVKKPGASVKVSCKASGYTFTGYYMHWVRQAPGQGLEWMGWINPNSGDTNYAQKFQGRVTMTRDTSITTAYMELSSLRSDDTAVYYCARDSPYSSSWSFFDYWGQGPLVTVSS
VL: not shown

biological target: M2 protein of influenza A/Hong Kong/483/97 (H5N1) (Influenza A virus A/Hong Kong/483/97); assay: not given; conditions: not given

Question: How did the FACS M2-HK MFI turn out when B1 was run?
Answer: The FACS M2-HK MFI was 967 MFI.

Question: Which FACS M2-HK MFI does the source give for B2 here?
Answer: Its FACS M2-HK MFI is 1700 MFI.

Question: B3 was tested. Which FACS M2-HK MFI did it give?
Answer: The FACS M2-HK MFI was 109 MFI.

Question: B4 was tested. Which FACS M2-HK MFI did it give?
Answer: The FACS M2-HK MFI was 449 MFI.

Question: With B5 as the binder, how does the FACS M2-HK MFI read?
Answer: The FACS M2-HK MFI was 112 MFI.

Question: Which FACS M2-HK MFI does the source give for B6 here?
Answer: The FACS M2-HK MFI was 442 MFI.

Question: With B7 as the binder, how does the FACS M2-HK MFI read?
Answer: The FACS M2-HK MFI was 218 MFI.

Question: Which FACS M2-HK MFI does the source give for B8 here?
Answer: Its FACS M2-HK MFI is 110 MFI.

Question: Which FACS M2-HK MFI does the source give for B9 here?
Answer: Its FACS M2-HK MFI is 1670 MFI.

Question: For B10, which FACS M2-HK MFI is on record?
Answer: The FACS M2-HK MFI was 919 MFI.

Question: How did the FACS M2-HK MFI turn out when B11 was run?
Answer: Its FACS M2-HK MFI is 963 MFI.

Question: With B12 as the binder, how does the FACS M2-HK MFI read?
Answer: Its FACS M2-HK MFI is 846 MFI.

Question: Which FACS M2-HK MFI does the source give for B13 here?
Answer: Its FACS M2-HK MFI is 596 MFI.

Question: B14 was tested. Which FACS M2-HK MFI did it give?
Answer: The FACS M2-HK MFI was 131 MFI.

Question: For B15, which FACS M2-HK MFI is on record?
Answer: The FACS M2-HK MFI was 434 MFI.

Question: With B16 as the binder, how does the FACS M2-HK MFI read?
Answer: Its FACS M2-HK MFI is 43 MFI.

biological target: recombinant homotrimeric HA, A/South Carolina/1/18 H1N1 (Influenza A virus A/South Carolina/1/18 (H1N1)); assay: trimeric HA microarray, transfection set 5; conditions: remark: other sources report otherwise

Question: B17 was tested. Which Trimeric HA Binding RLU did it give?
Answer: The Trimeric HA Binding RLU was 1330 RLU.

Question: Which Trimeric HA Binding RLU does the source give for B18 here?
Answer: Its Trimeric HA Binding RLU is 28300 RLU.

Question: With B19 as the binder, how does the Trimeric HA Binding RLU read?
Answer: The Trimeric HA Binding RLU was 46800 RLU.

biological target: recombinant homotrimeric HA, A/Japan/305/57 H2N2 (Influenza A virus A/Japan/305/57 (H2N2)); assay: trimeric HA microarray, transfection set 5; conditions: remark: other sources report otherwise

Question: B17 was tested. Which Trimeric HA Binding RLU did it give?
Answer: The Trimeric HA Binding RLU was 1000 RLU.

Question: How did the Trimeric HA Binding RLU turn out when B20 was run?
Answer: Its Trimeric HA Binding RLU is 1080 RLU.

Question: With B19 as the binder, how does the Trimeric HA Binding RLU read?
Answer: The Trimeric HA Binding RLU was 16200 RLU.

biological target: recombinant homotrimeric HA, A/Solomon Islands/3/06 H1N1 (Influenza A virus A/Solomon Islands/3/06 (H1N1)); assay: trimeric HA microarray, transfection set 5; conditions: remark: other sources report otherwise

Question: Which Trimeric HA Binding RLU does the source give for B17 here?
Answer: Its Trimeric HA Binding RLU is 997 RLU.

Question: Which Trimeric HA Binding RLU does the source give for B20 here?
Answer: The Trimeric HA Binding RLU was 640 RLU.

Question: With B18 as the binder, how does the Trimeric HA Binding RLU read?
Answer: Its Trimeric HA Binding RLU is 43500 RLU.

biological target: recombinant homotrimeric HA, A/swine/Ontario/01911-2/99 H4N6 (Influenza A virus A/swine/Ontario/01911-2/99 (H4N6)); assay: trimeric HA microarray, transfection set 5; conditions: remark: other sources report otherwise

Question: With B19 as the binder, how does the Trimeric HA Binding RLU read?
Answer: The Trimeric HA Binding RLU was 3280 RLU.

biological target: recombinant homotrimeric HA, A/Wisconsin/67/05 H3N2 (Influenza A virus A/Wisconsin/67/05 (H3N2)); assay: trimeric HA microarray, transfection set 5; conditions: remark: other sources report otherwise

Question: Which Trimeric HA Binding RLU does the source give for B20 here?
Answer: Its Trimeric HA Binding RLU is 51600 RLU.

Question: Which Trimeric HA Binding RLU does the source give for B18 here?
Answer: Its Trimeric HA Binding RLU is 37000 RLU.

Question: B19 was tested. Which Trimeric HA Binding RLU did it give?
Answer: Its Trimeric HA Binding RLU is 1940 RLU.

biological target: recombinant homotrimeric HA, A/California/4/09 H1N1 (Influenza A virus A/California/4/09 (H1N1)); assay: trimeric HA microarray, transfection set 5; conditions: remark: other sources report otherwise

Question: Which Trimeric HA Binding RLU does the source give for B17 here?
Answer: Its Trimeric HA Binding RLU is 706 RLU.

Question: For B20, which Trimeric HA Binding RLU is on record?
Answer: The Trimeric HA Binding RLU was 622 RLU.

Question: For B18, which Trimeric HA Binding RLU is on record?
Answer: The Trimeric HA Binding RLU was 2340 RLU.

Question: B19 was tested. Which Trimeric HA Binding RLU did it give?
Answer: The Trimeric HA Binding RLU was 33800 RLU.
